Experimental data reported in the supplement of paper PMC10126150.
± gives the standard deviation of the averaged measurements.

Test system: ATP
Test: switch fluorescence ratio, 500 uM ATP over buffer (Cy3 cluster intensity, sum of 5 cycles each) (fold (ratio)); higher = stronger signal-on switching upon ATP binding; sequences stand for … in TCGTCGGCAGCGTCAGATGTGTATAAGAGACAGTTTTTTTTTTTTTTTTTTTTTTTTT…TC
Conditions: aptamer strand: ATP DNA aptamer (quencher-CACCTGGGGGAGTATTGCGGAGGAAGG + anchor), 100 nM annealed; ATP concentration: 500 uM
Method in brief: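 Exposure to 500 uM ATP lasted 15 min at 22 °C before imaging, and a selection-buffer image was taken beforehand, for Cy3-labelled switching-strand clusters on a modified Illumina MiSeq flow-cell annealed to 100 nM quencher-labelled ATP aptamer. Five buffer/ATP cycles were run with NaOH stripping and re-annealing between them. The fluorescence ratio per cluster is summed target-cycle over summed buffer-cycle Cy3 intensity, averaged per switch-domain sequence. Clusters outside 100-1000 RFU were excluded.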

With GGTGAGTTAC the switch fluorescence ratio was 0.98 ± 0.013.
Sequence GGTGATAAAT has a switch fluorescence ratio of 0.991 ± 0.025.
GGTGATACGG gave a switch fluorescence ratio of 1.012 ± 0.0022.
GGTGATAGTT showed a switch fluorescence ratio of 0.994 ± 0.017.
For GGTGCAAGCT, the switch fluorescence ratio was 1.019 ± 0.0023.
GGTGCAAGTT gave a switch fluorescence ratio of 1.02 ± 0.042.
Sequence GGTGCAGGTA has a switch fluorescence ratio of 0.984 ± 0.025.
GGTGCCGTGC was tested, and the switch fluorescence ratio was 0.995 ± 0.034.
In the case of GGTGCGATTG, the switch fluorescence ratio is reported as 1.07 ± 0.052.
GGTGCGTAGG was tested, and the switch fluorescence ratio was 1 ± 0.012.
With GGTGCGTTGG the switch fluorescence ratio was 1.03 ± 0.042.
GGTGCTGGAG showed a switch fluorescence ratio of 0.98 ± 0.011.
For GGTGGACTTG, the switch fluorescence ratio was 1 ± 0.041.
GGTGGAGGGA showed a switch fluorescence ratio of 0.987 ± 0.031.
With GGTGGAGGGG the switch fluorescence ratio was 1 ± 0.0022.
Work on GGTGGATACA yielded a switch fluorescence ratio of 1.005 ± 0.0036.
With GGTGGGAATG the switch fluorescence ratio was 0.99 ± 0.023.
With GGTGGGACAA the switch fluorescence ratio was 0.966 ± 0.042.
With GGTGGGAGAC the switch fluorescence ratio was 1.01 ± 0.03.
GGTGGGAGCA showed a switch fluorescence ratio of 1.04 ± 0.034.
For GGTGGGAGGG, the switch fluorescence ratio was 1.008 ± 0.0073.
Work on GGTGGGATTT yielded a switch fluorescence ratio of 0.9506 ± 0.0055.
GGTGGGGAAA showed a switch fluorescence ratio of 1.0255 ± 0.00086.
GGTGGGGAGA showed a switch fluorescence ratio of 1.017 ± 0.0086.
GGTGGGGAGT showed a switch fluorescence ratio of 1.01 ± 0.021.
GGTGGGGCAG showed a switch fluorescence ratio of 0.9643 ± 0.0041.
With GGTGGGGCGA the switch fluorescence ratio was 1.01 ± 0.041.
GGTGGGGGGG was tested, and the switch fluorescence ratio was 1 ± 0.036.
Sequence GGTGGGGGGT has a switch fluorescence ratio of 0.989 ± 0.029.
GGTGGGGTTA was tested, and the switch fluorescence ratio was 0.984 ± 0.038.
For GGTGGGTTGT, the switch fluorescence ratio was 1.03 ± 0.076.
In the case of GGTGGTAGGA, the switch fluorescence ratio is reported as 0.98 ± 0.041.
With GGTGGTAGTT the switch fluorescence ratio was 1.012 ± 0.003.
For GGTGGTGAGC, the switch fluorescence ratio was 1 ± 0.026.
GGTGGTTGTA was tested, and the switch fluorescence ratio was 0.919 ± 0.043.
Sequence GGTGTAACAG has a switch fluorescence ratio of 0.991 ± 0.012.
GGTGTACCGG gave a switch fluorescence ratio of 1.004 ± 0.0092.
Work on GGTGTAGGAC yielded a switch fluorescence ratio of 1.03 ± 0.012.
Work on GGTGTCTGCG yielded a switch fluorescence ratio of 1.01 ± 0.013.
GGTGTGATTT showed a switch fluorescence ratio of 1 ± 0.025.
Sequence GGTGTGCATC has a switch fluorescence ratio of 1 ± 0.018.
Work on GGTGTGGCCG yielded a switch fluorescence ratio of 1.02 ± 0.062.
With GGTGTGGCGC the switch fluorescence ratio was 0.955 ± 0.0063.
GGTGTGGGAT gave a switch fluorescence ratio of 1.01 ± 0.057.
With GGTGTGGTCA the switch fluorescence ratio was 0.977 ± 0.035.
With GGTGTGTATC the switch fluorescence ratio was 1.01 ± 0.02.
Sequence GGTGTGTGGT has a switch fluorescence ratio of 1.002 ± 0.0029.
For GGTGTTACGT, the switch fluorescence ratio was 0.971 ± 0.017.
Sequence GGTGTTAGGT has a switch fluorescence ratio of 0.9925 ± 0.0029.
With GGTGTTCAGC the switch fluorescence ratio was 0.981 ± 0.04.
For GGTGTTCAGG, the switch fluorescence ratio was 1.042 ± 0.0083.
GGTGTTGGGG showed a switch fluorescence ratio of 1.0211 ± 3.7e-05.
With GGTGTTGGTT the switch fluorescence ratio was 1.008 ± 0.0093.
GGTGTTGTG showed a switch fluorescence ratio of 0.974 ± 0.081.
With GGTGTTGTTG the switch fluorescence ratio was 1.017 ± 0.0023.
GGTTAAACAA was tested, and the switch fluorescence ratio was 1.01 ± 0.016.
GGTTAACTTA gave a switch fluorescence ratio of 0.979 ± 0.042.
GGTTAAGCTT showed a switch fluorescence ratio of 1.007 ± 0.0078.
For GGTTAAGGAT, the switch fluorescence ratio was 0.9884 ± 0.0023.
GGTTAAGGCC was tested, and the switch fluorescence ratio was 1.033 ± 0.007.
GGTTAAGGGA gave a switch fluorescence ratio of 0.982 ± 0.024.
With GGTTAAGGGG the switch fluorescence ratio was 1.05 ± 0.13.
GGTTAAGGTC was tested, and the switch fluorescence ratio was 1 ± 0.029.
GGTTAAGTTT gave a switch fluorescence ratio of 0.969 ± 0.025.
In the case of GGTTAATGGA, the switch fluorescence ratio is reported as 0.9833 ± 0.0035.
GGTTAATGGC was tested, and the switch fluorescence ratio was 1.05 ± 0.039.
With GGTTACAGTT the switch fluorescence ratio was 1.036 ± 0.01.
With GGTTACATTG the switch fluorescence ratio was 0.993 ± 0.019.
GGTTACGGC showed a switch fluorescence ratio of 1.07 ± 0.17.
GGTTAGCGG was tested, and the switch fluorescence ratio was 0.9599 ± 0.0026.
GGTTAGGGAC showed a switch fluorescence ratio of 1.04 ± 0.04.
GGTTAGGGAG showed a switch fluorescence ratio of 1.002 ± 0.0089.
GGTTAGGGGG showed a switch fluorescence ratio of 1 ± 0.052.
GGTTAGTACT was tested, and the switch fluorescence ratio was 0.999 ± 0.017.
In the case of GGTTATAGGG, the switch fluorescence ratio is reported as 0.9802 ± 0.008.
GGTTATAGTT was tested, and the switch fluorescence ratio was 1.01 ± 0.011.
In the case of GGTTATCGGC, the switch fluorescence ratio is reported as 1.01 ± 0.017.
GGTTATGAGT gave a switch fluorescence ratio of 0.99 ± 0.017.
With GGTTATTGGA the switch fluorescence ratio was 0.995 ± 0.058.
GGTTATTTTT gave a switch fluorescence ratio of 1.01 ± 0.036.
Sequence GGTTCAAAAC has a switch fluorescence ratio of 0.997 ± 0.059.
Sequence GGTTCAACGG has a switch fluorescence ratio of 0.982 ± 0.014.
GGTTCAATCT was tested, and the switch fluorescence ratio was 0.9815 ± 0.0012.
In the case of GGTTCACGGG, the switch fluorescence ratio is reported as 0.983 ± 0.015.
GGTTCACTTT showed a switch fluorescence ratio of 1.02 ± 0.033.
GGTTCAGGGG was tested, and the switch fluorescence ratio was 2.26 ± 1.8.
With GGTTCCTATG the switch fluorescence ratio was 0.9909 ± 0.0079.
Sequence GGTTCTGAGC has a switch fluorescence ratio of 0.986 ± 0.02.
In the case of GGTTCTGGGT, the switch fluorescence ratio is reported as 1 ± 0.02.
For GGTTCTGTCC, the switch fluorescence ratio was 1.03 ± 0.021.
Sequence GGTTCTTGAA has a switch fluorescence ratio of 0.994 ± 0.019.
In the case of GGTTCTTGG, the switch fluorescence ratio is reported as 0.995 ± 0.062.
GGTTCTTTTC gave a switch fluorescence ratio of 0.996 ± 0.037.
Work on GGTTGAAATG yielded a switch fluorescence ratio of 0.939 ± 0.072.
GGTTGAGCGT gave a switch fluorescence ratio of 1.01 ± 0.047.
Work on GGTTGAGCTC yielded a switch fluorescence ratio of 0.973 ± 0.063.
Work on GGTTGAGGAC yielded a switch fluorescence ratio of 1.01 ± 0.057.
With GGTTGAGGG the switch fluorescence ratio was 0.997 ± 0.001.
GGTTGAGGGA gave a switch fluorescence ratio of 0.979 ± 0.016.
In the case of GGTTGATAGA, the switch fluorescence ratio is reported as 1.01 ± 0.028.
